Target: CD22 (human) (UniProt P20273)
Experiment: cell-based or functional assay

| Substance | LC50, 697 cells (ALL), second series | LC50, EU cells (ALL), second series | LC50, KOPN 8 cells (ALL), second series | LC50, NALM 6 cells (ALL), second series | LC50, RAJI cells (Burkitt), second series | LC50, REH cells (ALL), second series | LC50, 697 cells (ALL) | LC50, EU cells (ALL) | LC50, KOPN 8 cells (ALL) | LC50, NALM 6 cells (ALL) | LC50, RAJI cells (Burkitt) | LC50, REH cells (ALL) |
| --- | --- | --- | --- | --- | --- | --- | --- | --- | --- | --- | --- | --- |
| HA22-LR-8X | 1 ng/mL | 0.3 ng/mL | 0.4 ng/mL | 2 ng/mL | 0.2 ng/mL | 0.5 ng/mL | – | – | – | – | – | – |
| HA22-LR-KDEL | – | – | – | – | – | – | 0.2 ng/mL | 0.3 ng/mL | 0.3 ng/mL | 1 ng/mL | 0.2 ng/mL | 0.2 ng/mL |

Source: patent US20150218286A1
